B1: Fv4-F1166 (antibody, IgG1)
heavy: QVQLQESGPGLVKPSETLSLTCAVSGHSISHDHAWSWVRQPPGEGLEWIGFISYSGITNYNPSLQGRVTISRDNSKNTLYLQMNSLRAEDTAVYYCARSLARTTAMDYWGEGTLVTVSSASTKGPSVFPLAPSSKSTSGGTAALGCLVKDYFPEPVTVSWNSGALTSGVHTFPAVLQSSGLYSLSSVVTVPSSSLGTQTYICNVNHKPSNTKVDKKVEPKSCDKTHTCPPCPAPELLGGPSVFLFPPKPKDTLYITREPEVTCVVVDVSHEDPEVKFNWYVDGVEVHNAKTKPREEQYNSTYRVVSVLTVLHQDWLNGKEYKCKVSNKALPAPIEKTISKAKGQPREPQVYTLPPSRDELTKNQVSLTCLVKGFYPSDIAVEWESNGQPENNYKTTPPVLDSDGSFFLYSKLTVDKSRWQQGNVFSCSVMHEALHNHYTRKELSLSP
light: DIQMTQSPSSLSASVGDSVTITCQASTDISSHLNWYQQKPGKAPELLIYYGSHLLSGVPSRFSGSGSGTDFTFTISSLEAEDAATYYCGQGNRLPYTFGQGTKVEIERTVAAPSVFIFPPSDEQLKSGTASVVCLLNNFYPREAKVQWKVDNALQSGNSQESVTEQDSKDSTYSLSSTLTLSKADYEKHKVYACEVTHQGLSSPVTKSFNRGEC
notes: copies: 2 + 2
B2: Fv4-YTE (antibody, human IgG1, kappa)
heavy: B1 heavy with R440Q, E442S
light: B1 light
notes: copies: 2 + 2
B3: Fv4-F1167 (antibody, human IgG1, kappa)
heavy: B1 heavy with S426N, R440Q, E442S
light: B1 light
notes: copies: 2 + 2
B4: Fv4-F1173 (antibody, human IgG1, kappa)
heavy: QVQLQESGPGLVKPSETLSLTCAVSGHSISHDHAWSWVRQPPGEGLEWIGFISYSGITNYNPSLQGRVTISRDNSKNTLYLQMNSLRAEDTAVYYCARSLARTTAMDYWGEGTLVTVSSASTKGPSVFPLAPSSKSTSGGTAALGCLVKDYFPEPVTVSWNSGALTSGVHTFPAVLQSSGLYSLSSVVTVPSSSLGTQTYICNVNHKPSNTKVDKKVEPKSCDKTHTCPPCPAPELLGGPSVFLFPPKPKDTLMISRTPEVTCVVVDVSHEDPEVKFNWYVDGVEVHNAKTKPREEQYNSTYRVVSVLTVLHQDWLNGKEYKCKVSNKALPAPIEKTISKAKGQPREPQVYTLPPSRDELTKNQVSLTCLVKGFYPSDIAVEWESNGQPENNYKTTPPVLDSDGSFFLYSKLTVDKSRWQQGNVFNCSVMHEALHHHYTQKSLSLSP
light: B1 light
notes: copies: 2 + 2
B5: Fv4-LS (antibody, human IgG1, kappa)
heavy: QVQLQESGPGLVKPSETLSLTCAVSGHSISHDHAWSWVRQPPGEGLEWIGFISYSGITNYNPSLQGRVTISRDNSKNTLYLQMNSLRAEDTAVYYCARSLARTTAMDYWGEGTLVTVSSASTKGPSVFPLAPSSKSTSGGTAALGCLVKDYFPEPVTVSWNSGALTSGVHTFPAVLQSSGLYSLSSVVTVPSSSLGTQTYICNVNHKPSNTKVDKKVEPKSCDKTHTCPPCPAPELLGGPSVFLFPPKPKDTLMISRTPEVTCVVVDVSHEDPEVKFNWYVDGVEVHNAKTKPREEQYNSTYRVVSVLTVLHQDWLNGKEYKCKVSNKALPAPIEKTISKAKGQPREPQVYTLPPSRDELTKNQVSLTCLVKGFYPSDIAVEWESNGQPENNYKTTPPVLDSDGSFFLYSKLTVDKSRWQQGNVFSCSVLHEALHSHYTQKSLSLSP
light: B1 light
notes: also called F22 (LS); F22; copies: 2 + 2
B6: Fv4-F1171 (antibody, human IgG1, kappa)
heavy: B1 heavy with Y254M, T256S, E258T, S426N, M430L, N436S, R440Q, E442S
light: B1 light
notes: copies: 2 + 2
B7: Fv4-F1172 (antibody, IgG1)
heavy: B1 heavy with Y254M, T256S, E258T, N436H
light: B1 light
notes: copies: 2 + 2
B8: Fv4-N434H (antibody, human IgG1, kappa)
heavy: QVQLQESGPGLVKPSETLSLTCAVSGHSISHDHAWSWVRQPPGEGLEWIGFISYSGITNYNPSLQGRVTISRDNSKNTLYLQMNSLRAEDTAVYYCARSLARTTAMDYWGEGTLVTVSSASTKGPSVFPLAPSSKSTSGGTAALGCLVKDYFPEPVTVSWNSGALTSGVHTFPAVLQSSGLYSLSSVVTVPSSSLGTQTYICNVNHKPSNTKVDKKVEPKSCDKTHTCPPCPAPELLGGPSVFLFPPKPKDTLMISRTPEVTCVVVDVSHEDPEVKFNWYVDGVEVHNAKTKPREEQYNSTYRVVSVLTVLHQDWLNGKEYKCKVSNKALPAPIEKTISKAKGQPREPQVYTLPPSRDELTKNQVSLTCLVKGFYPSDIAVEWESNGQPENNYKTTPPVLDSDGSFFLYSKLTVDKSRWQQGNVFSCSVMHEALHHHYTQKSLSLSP
light: B1 light
notes: copies: 2 + 2
B9: IL6R-BP561/IL6R-L (antibody, human IgG1, kappa)
heavy: QVQLQESGPGLVKPSETLSLTCAVSGHSISHDHAWSWVRQPPGEGLEWIGFISYSGITNYNPSLQGRVTISRDNSKNTLYLQMNSLRAEDTAVYYCARSLARTTAMDYWGEGTLVTVSSASTKGPSVFPLAPSSKSTSGGTAALGCLVKDYFPEPVTVSWNSGALTSGVHTFPAVLQSSGLYSLSSVVTVPSSSLGTQTYICNVNHKPSNTKVDKKVEPKSCDKTHTCPPCPAPDLLGDDSVFLFPPKPKDTLMISRTPEVTCVVVDVSDEDGDVKFNWYVDGVEVHNAKTKPREEQDNSTYRVVSVLTVLHQDWLNGKEYKCKVSNKALPRPIEKTISKAKGQPREPQVYTLPPSRDELTKNQVSLTCLVKGFYPSDIAVEWESNGQPENNYKTTPPVLDSDGSFFLYSKLTVDKSRWQQGNVFSCSVMHEALHNHYTQESLSLSP
light: not shown
notes: copies: 2 + 2
B10: IL6R-BP184/IL6R-L (antibody, human IgG1, kappa)
heavy: B9 heavy with D239G, D270H, D274E, D298Y, R332K
light: not shown
notes: copies: 2 + 2
B11: IL6R-BP202/IL6R-L (antibody, human IgG1, kappa)
heavy: B9 heavy with D235E, D270H, D274E, D298Y, K328A
light: not shown
notes: copies: 2 + 2
B12: IL6R-BP195/IL6R-L (antibody, human IgG1, kappa)
heavy: B9 heavy with L236Y, D274E, K328A, R332K
light: not shown
notes: copies: 2 + 2
B13: IL6R-BP209/IL6R-L (antibody, human IgG1, kappa)
heavy: B9 heavy with D235E, D274E, D298Y, K328A
light: not shown
notes: copies: 2 + 2
B14: IL6R-BP208/IL6R-L (antibody, human IgG1, kappa)
heavy: B9 heavy with D274E, D298Y
light: not shown
notes: copies: 2 + 2
B15: IL6R-BP185/IL6R-L (antibody, human IgG1, kappa)
heavy: B9 heavy with L236Y, D270H, D274E, D298Y, K328A, R332K
light: not shown
notes: copies: 2 + 2
B16: IL6R-BP201/IL6R-L (antibody, human IgG1, kappa)
heavy: B9 heavy with D270H, D274E, D298Y
light: not shown
notes: copies: 2 + 2
B17: IL6R-BP206/IL6R-L (antibody, human IgG1, kappa)
heavy: B9 heavy with D239G, D270H, D274E, D298Y
light: not shown
notes: copies: 2 + 2
B18: IL6R-BP200/IL6R-L (antibody, human IgG1, kappa)
heavy: B9 heavy with L236Y, D270H, D274E, D298Y, K328D
light: not shown
notes: copies: 2 + 2
B19: IL6R-BP230/IL6R-L (antibody, human IgG1, kappa)
heavy: B9 heavy with D274E
light: not shown
notes: copies: 2 + 2
B20: IL6R-BP547/IL6R-L (antibody, human IgG1, kappa)
heavy: B9 heavy with D274E, K411R
light: not shown
notes: K409R introduced into IL6R-BP230; copies: 2 + 2
B21: IL6R-BP545/IL6R-L (antibody, human IgG1, kappa)
heavy: B9 heavy with D274E, D358E
light: not shown
notes: D356E introduced into IL6R-BP230; copies: 2 + 2

We go through 21 molecules from patent publication US20220389118A1 (Chugai, published 2022).

Positions count from the first letter of the chain named.

T7 sequence (P08637 17-208 F176V): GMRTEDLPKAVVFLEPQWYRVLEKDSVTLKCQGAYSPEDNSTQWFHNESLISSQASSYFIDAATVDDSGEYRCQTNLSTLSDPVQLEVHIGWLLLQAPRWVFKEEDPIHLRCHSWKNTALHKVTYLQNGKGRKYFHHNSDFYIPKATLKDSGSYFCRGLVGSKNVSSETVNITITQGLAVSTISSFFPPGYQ

The target in one experiment is T1, human FcRn (human, UniProt P55899 24-297; P61769 21-119).
T1 construct: the construct is not described
T1 sequence (P55899 24-297 limits assumed, chain 1 of 2): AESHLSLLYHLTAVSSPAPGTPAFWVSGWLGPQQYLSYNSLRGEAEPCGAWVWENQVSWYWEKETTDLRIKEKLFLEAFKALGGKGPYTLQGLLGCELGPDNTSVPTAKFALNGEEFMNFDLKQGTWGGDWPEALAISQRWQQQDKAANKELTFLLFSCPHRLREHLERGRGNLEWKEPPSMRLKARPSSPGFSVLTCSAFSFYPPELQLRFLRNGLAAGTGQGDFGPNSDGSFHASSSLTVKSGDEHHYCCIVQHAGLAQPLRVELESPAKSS
T1 sequence (P61769 21-119 limits assumed, chain 2 of 2): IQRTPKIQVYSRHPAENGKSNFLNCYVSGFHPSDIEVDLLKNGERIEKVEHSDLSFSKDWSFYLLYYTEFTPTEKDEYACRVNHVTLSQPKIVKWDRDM
Briefly: FcRn binding affinity at pH 6.0; method not stated.
For the molecule B1, the affinity, expressed as Kd, was 210 nM.

Turning to B2, the affinity, expressed as Kd, was 210 nM.

For B3, binding was put at a Kd of 250 nM.

With B4, the Kd – broadly, the free concentration of one partner at which half of the binding sites on the other are occupied at equilibrium, for simple one-to-one binding – was determined as 530 nM.

B5 displayed a Kd of 160 nM.

B6 showed a dissociation constant Kd of 240 nM.

Consider B7, for which the affinity, expressed as Kd, was 400 nM.

As to B8, binding was characterised by a dissociation constant (Kd) of 430 nM.

Another experiment deals with T2, human FcγRIa extracellular domain (human, UniProt P12314 16-292).
T2 construct: also called CD64; not shown: His tag at the C terminus
T2 sequence (P12314 16-292): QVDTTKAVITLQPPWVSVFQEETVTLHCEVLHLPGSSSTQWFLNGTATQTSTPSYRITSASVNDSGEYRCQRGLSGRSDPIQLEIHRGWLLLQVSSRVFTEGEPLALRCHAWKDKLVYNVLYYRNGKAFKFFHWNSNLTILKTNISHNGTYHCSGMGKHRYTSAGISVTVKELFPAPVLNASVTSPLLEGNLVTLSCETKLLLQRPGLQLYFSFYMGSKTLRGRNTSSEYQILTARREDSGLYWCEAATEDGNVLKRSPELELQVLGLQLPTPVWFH
The experiment can be described thus: SPR (Biacore), antibody captured on chip, FcγR extracellular domain as analyte, 25 C. Background: SPR reads the build-up and loss of mass on a sensor chip optically.
In turn, B9 had a Kd of 9.4 nM.

Another experiment has as its target T3, human FcγRIIa type R extracellular domain (human, UniProt P12318 34-217).
T3 construct: also called FcγRIIaR; FcγRIIa(R); not shown: His tag at the C terminus
T3 chain: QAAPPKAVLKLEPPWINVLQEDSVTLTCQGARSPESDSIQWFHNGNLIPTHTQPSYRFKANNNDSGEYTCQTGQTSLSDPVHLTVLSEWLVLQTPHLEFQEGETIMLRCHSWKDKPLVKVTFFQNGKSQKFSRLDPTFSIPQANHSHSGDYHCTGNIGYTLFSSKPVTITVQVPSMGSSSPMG
The description is as above.
As to B9, binding was put at a Kd of 510 nM.

The target in another experiment is T4, human FcγRIIb extracellular domain (human, UniProt P31994 43-217).
T4 construct: also called FcγIIB; not shown: His tag at the C terminus
T4 sequence: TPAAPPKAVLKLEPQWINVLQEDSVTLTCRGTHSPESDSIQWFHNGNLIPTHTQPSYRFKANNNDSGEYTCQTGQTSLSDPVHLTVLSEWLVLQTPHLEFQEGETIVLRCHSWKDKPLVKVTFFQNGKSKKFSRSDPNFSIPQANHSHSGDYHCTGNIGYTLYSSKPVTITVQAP
The description is as above.
The molecule B9 gave a Kd of 18 nM.

The target of another experiment is T5, human FcγRIIa type H (allotype H131) extracellular domain with C-terminal His tag (human, UniProt P12318 34-217).
T5 construct: extracellular domain; also called FcγRIIaH; FcγRIIa H type; not shown: His tag at the C terminus
T5 sequence (looked up): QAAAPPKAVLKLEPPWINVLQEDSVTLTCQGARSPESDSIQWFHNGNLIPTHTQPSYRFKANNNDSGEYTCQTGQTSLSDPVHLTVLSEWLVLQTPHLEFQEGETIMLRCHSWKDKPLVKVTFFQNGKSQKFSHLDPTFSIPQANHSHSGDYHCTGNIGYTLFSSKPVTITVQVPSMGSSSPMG
The experiment can be described thus: SPR (Biacore), antibody captured, FcγR analyte.
Turning to B10, binding was put at a Kd of 30000 nM.

The molecule B11 registered a Kd of 9200 nM.

On to B12, for which the Kd worked out at 10000 nM.

On to B13, for which binding was put at a Kd of 10000 nM.

The molecule B14 displayed a dissociation constant Kd of 8300 nM.

The target of the next experiment is T6, human FcγRIIa type R (allotype R131) extracellular domain with C-terminal His tag (human, UniProt P12318 34-217).
T6 construct: extracellular domain; also called FcγRIIaR; FcγRIIa R type; not shown: His tag at the C terminus
T6 sequence (looked up): T5 sequence (looked up) with H134R
Briefly: SPR (Biacore), antibody captured, FcγR analyte.
In turn, B10 showed a Kd of 2300 nM.

As to B12, binding was put at a Kd of 910 nM.

In the case of B15, binding was characterised by a dissociation constant (Kd) of 880 nM.

B16 returned a Kd of 840 nM.

B14 yielded a Kd of 850 nM.

A further experiment concerns the target T7, human FcγRIIIa type V (allotype V158) extracellular domain with C-terminal His tag (human, UniProt P08637 17-208).
T7 construct: extracellular domain; also called FcγRIIIaV; FcγRIIIa V type; not shown: His tag at the C terminus
Briefly: SPR (Biacore), antibody captured, FcγR analyte.
As for B10, the affinity, expressed as Kd, was 66000 nM.

In turn, B17 displayed a Kd of 69000 nM.

As to B12, the affinity, expressed as Kd, was 31000 nM.

On to B15, for which binding was characterised by a dissociation constant (Kd) of 36000 nM.

As to B13, the Kd turned out to be 41000 nM.

In the case of B14, the Kd was found to be 53000 nM.

The target in the next experiment is T8, human FcγRIIb extracellular domain with C-terminal His tag (human, UniProt P31994 43-217).
T8 construct: extracellular domain; not shown: His tag at the C terminus
T8 sequence (looked up): T4 sequence
The experiment can be described thus: SPR (Biacore), antibody captured, FcγR analyte.
Take B18: binding was characterised by a dissociation constant (Kd) of 34 nM.

B17 registered a Kd of 200 nM.

B12: binding was characterised by a dissociation constant (Kd) of 50 nM.

For B15, the Kd came out at 69 nM.

On to B13, for which the Kd was 51 nM.

B16 had a Kd of 40 nM.

In the next experiment the target is T9, human FcγRIa extracellular domain with C-terminal His tag (human, UniProt P12314 16-292).
T9 construct: not shown: His tag at the C terminus
Briefly: SPR (Biacore), antibody captured, FcγR analyte.
T9 sequence (P12314 16-292): as the sequence (P12314 16-292) above
B11 came in with an equilibrium dissociation constant (Kd) of 95 nM.

Turning to B13, binding was characterised by a dissociation constant (Kd) of 39 nM.

The target of a further experiment is T10, human FcγRIa extracellular domain with C-terminal His tag (human, UniProt P12314 16-292).
T10 construct: not shown: His tag at the C terminus
Briefly: SPR (Biacore), antibody captured, FcγR analyte.
T10 sequence (P12314 16-292): as the sequence (P12314 16-292) above
With B19, the Kd worked out at 10 nM.

B20 gave a Kd of 12 nM.

A further experiment concerns the target T11, human FcγRIIb extracellular domain with C-terminal His tag (human, UniProt P31994 43-217).
T11 construct: extracellular domain; not shown: His tag at the C terminus
T11 sequence (looked up): T4 sequence
The experiment can be described thus: SPR (Biacore), antibody captured, FcγR analyte.
On to B21, for which the Kd worked out at 17 nM.

Molecule B19 showed a Kd of 18 nM.

In turn, B20 showed a Kd of 19 nM.

In another experiment the target is T12, human FcγRIIa type R (R131) extracellular domain with C-terminal His tag (human, UniProt P12318 34-217).
T12 construct: extracellular domain; also called FcγRIIaR; not shown: His tag at the C terminus
T12 sequence (looked up): T5 sequence (looked up) with H134R
Briefly: SPR (Biacore), antibody captured, FcγR analyte.
Take B21: binding was characterised by a dissociation constant (Kd) of 570 nM.

In another experiment the target is T1, human FcRn. Briefly: binding to FcRn at pH 6.0; method not stated.
On to B5, for which the Kd was 71 nM.
